Test results: patent US20230109393A1 (UNITED BIOMEDICAL, published 2023)

Biological target: T1, ACE2-ECD-sFc fusion protein (Homo sapiens)
T1 construct: also called ACE2-sFc; ACE ECD-sFc
Assay: ELISA, plate coated with ACE2 ECD-sFc

B1: HRP alone (enzyme, UniProt P00433 31-338, looked up)
chain: QLTPTFYDNSCPNVSNIVRDTIVNELRSDPRIAASILRLHFHDCFVNGCDASILLDNTTSFRTEKDAFGNANSARGFPVIDRMKAAVESACPRTVSCADLLTIAAQQSVTLAGGPSWRVPLGRRDSLQAFLDLANANLPAPFFTLPQLKDSFRNVGLNRSSDLVALSGGHTFGKNQCRFIMDRLYNFSNTGLPDPTLNTTYLQTLRGLCPLNGNLSALVDFDLRTPTIFDNKYYVNLEEQKGLIQSDQELFSSPNATDTIPLVRSFANSTQTFFNAFVEAMDRMGNITPLTGTQGQIRLNCRVVNSNS
notes: also called HPR alone; control tracer
B1: no binding.
